Where “and” joins values, the source holds several entries; their conditions need not be identical. Identical values can stand only once.
Biological target: CD20 on autologous CD19+CD20+ B cells (human) (UniProt P11836)
Assay: cell-based or functional assay

Chain of CD20 on autologous CD19+CD20+ B cells (human) (P11836 whole entry): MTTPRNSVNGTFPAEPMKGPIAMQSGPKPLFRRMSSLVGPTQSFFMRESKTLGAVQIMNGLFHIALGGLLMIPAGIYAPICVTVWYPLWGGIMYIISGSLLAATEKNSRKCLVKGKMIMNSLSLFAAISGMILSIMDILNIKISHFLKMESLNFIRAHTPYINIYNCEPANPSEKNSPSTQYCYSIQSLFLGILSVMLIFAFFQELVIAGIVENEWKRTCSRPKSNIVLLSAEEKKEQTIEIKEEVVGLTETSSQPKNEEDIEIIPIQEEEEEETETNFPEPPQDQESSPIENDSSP

fold of CD69 activation of Tregs, hFXP3-driven CAR, 24 h with autologous B cells: 1.9 fold and 1.8 fold
fold of CD69 activation of Tregs, hPGK-driven CAR (TX028), 24 h with autologous B cells: 1.5 fold
Substance: CD20 CAR (CD8 leader, scFv directed against CD20 (B9E9), streptavidin tag, CD8 alpha linker and transmembrane domain, 4-1BB activation domain, CD3 zeta activation domain) (receptor)

— patent publication WO2021028359A1
